Legend:
[1] = biological target: TirM^EPEC, extracellular domain of the translocated intimin receptor (Tir) of enteropathogenic E. coli (enteropathogenic E. coli (EPEC)); test: SEC; purified TirM^EPEC in solution, size exclusion chromatography
[2] = biological target: T1, TirM^EHEC, extracellular domain of the translocated intimin receptor (Tir) of enterohaemorrhagic E. coli (Escherichia coli EHEC; strain not …, UniProt Q7DB77, biotin (NHS-biotin, biotin:protein 20:1) for flow cytometry and MACS); test: flow cytometry on cells; E. coli displaying the intimin-Nb fusion (multivalent) incubated 90 min at 4 °C in PBS with biotinylated antigen (0-250 nM TirM^EPEC or 0-50 nM TirM^EHEC), stained with streptavidin-allophycocyanin; median fluorescence fitted to one-site specific binding; apparent KD; conditions: one partner purified
T1 construct: Translocated intimin receptor Tir of enterohaemorrhagic E. coli (EHEC), extracellular TirM domain; also called EHEC TirM; former antigen

[3] = biological target: T2, TirM^EPEC, extracellular domain of the translocated intimin receptor (Tir) of enteropathogenic E. coli (Escherichia coli EPEC; strain not …, UniProt B7UM99, biotin (NHS-biotin, biotin:protein 20:1) for flow cytometry and MACS); test: ELISA; Maxisorp plates coated with His-tagged TirM at 10 ug/mL in PBS; purified monovalent Nb in 3% skimmed milk in PBS, 0-100 nM (TD4) or 0-400 nM (mutants), 90 min at 23 °C; detected with anti-E-tag; one-site specific binding fit; apparent KD; conditions: both partners purified
T2 construct: Translocated intimin receptor Tir of enteropathogenic E. coli (EPEC), extracellular TirM domain; also called EPEC TirM; new antigen
Target sequence in this assay (B7UM99 255-362): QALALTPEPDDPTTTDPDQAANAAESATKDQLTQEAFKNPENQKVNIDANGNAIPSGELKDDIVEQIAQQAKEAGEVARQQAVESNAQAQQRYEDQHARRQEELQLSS

[4] = biological target: T1, TirM^EHEC, extracellular domain of the …; test: as above; conditions: both partners purified
Target sequence in this assay (Q7DB77 252-362): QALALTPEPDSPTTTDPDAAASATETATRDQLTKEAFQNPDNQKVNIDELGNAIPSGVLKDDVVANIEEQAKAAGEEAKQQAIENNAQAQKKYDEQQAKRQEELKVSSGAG

[5] = biological target: T2, TirM^EPEC, extracellular domain of the …; test: flow cytometry on cells; E. coli displaying the intimin-Nb fusion (multivalent) incubated 90 min at 4 °C in PBS with biotinylated antigen (0-250 nM TirM^EPEC or 0-50 nM TirM^EHEC), stained with streptavidin-allophycocyanin; median fluorescence fitted to one-site specific binding; apparent KD; conditions: one partner purified
[6] = biological target: T2, TirM^EPEC, extracellular domain of the …; test: ELISA; Maxisorp plates coated with His-tagged TirM at 10 ug/mL in PBS; purified monovalent Nb in 3% skimmed milk in PBS, 0-100 nM (TD4) or 0-400 nM (mutants), 90 min at 23 °C; detected with anti-E-tag; one-site specific binding fit; apparent KD; conditions: both partners purified; remark: listed apart in the source
Target sequence in this assay (B7UM99 255-362): as the sequence (B7UM99 255-362) above

Row | Molecule | Kd [2] | Kd [3] | Kd [4] | Kd [5] | further results
1 | TirM^EPEC, extracellular domain of the translocated intimin receptor (Tir) of enteropathogenic E. coli (domain or fragment) | – | – | – | – | stoichiometry N [1]: 2
2 | Nb TD4 displayed on E. coli as a fusion to the outer membrane anchoring domain of intimin (VHH, VHH TD4; multivalent on the bacterial surface; also called parental Nb; non-evolved TD4; not shown: intimin outer membrane anchoring domain, N-terminal, kept) VHH: QVQLVDAGGGSVQAGGSLTLSCVASGAAYSTNLLGWFRQAPGKEREGVASIYRGNSATNYADSVKGRFTISQDKTKYTIYLQMNSLKPEDSAMYYCAHGTAPYWHTPIPTLSEDKYFYWGQGTQVTVSS | 0.41 nM | – | – | – | –
3 | Nb TD4^D116G, secreted His6-tagged VHH-HlyA fusion (monovalent, purified) (VHH, as the VHH of m7 with D116G; also called Nb D116G) VHH: QVQLVDAGGGSVQAGGSLTLSCVASGAAYSTNLLGWFRQAPGKEREGVASIYRGNSATNYADSVKGRFTISQDKTKYTIYLQMNSLKPEDSAMYYCAHGTAPYWHTPIPTLSEGKYFYWGQGTQVTVSS | – | 397 nM | 137 nM | – | –
4 | Nb TD4^D116G displayed on E. coli as a fusion to the outer membrane anchoring domain of intimin (VHH, as the VHH of m3 with D116G (CDR3); Evolved from TD4 by DIvERGE mutagenesis and MACS selection; also called Nb D116G; not shown: intimin outer membrane anchoring domain, N-terminal, kept) VHH: QVQLVDAGGGSVQAGGSLTLSCVASGAAYSTNLLGWFRQAPGKEREGVASIYRGNSATNYADSVKGRFTISQDKTKYTIYLQMNSLKPEDSAMYYCAHGTAPYWHTPIPTLSEGKYFYWGQGTQVTVSS | 0.58 nM | – | – | 17.9 nM | –
5 | Nb TD4^H107Y, secreted His6-tagged VHH-HlyA fusion (monovalent, purified) (VHH, as the VHH of m7 with H107Y; also called Nb H107Y) VHH: QVQLVDAGGGSVQAGGSLTLSCVASGAAYSTNLLGWFRQAPGKEREGVASIYRGNSATNYADSVKGRFTISQDKTKYTIYLQMNSLKPEDSAMYYCAHGTAPYWYTPIPTLSEDKYFYWGQGTQVTVSS | – | 20.1 nM | 47.7 nM | – | Kd [6]: 20.8 ± 2.31 nM
6 | Nb TD4^T108R, secreted His6-tagged VHH-HlyA fusion (monovalent, purified) (VHH, as the VHH of m7 with T108R; also called Nb T108R) VHH: QVQLVDAGGGSVQAGGSLTLSCVASGAAYSTNLLGWFRQAPGKEREGVASIYRGNSATNYADSVKGRFTISQDKTKYTIYLQMNSLKPEDSAMYYCAHGTAPYWHRPIPTLSEDKYFYWGQGTQVTVSS | – | 176 nM | 4.61 nM | – | –
7 | Nb TD4^H107Y displayed on E. coli as a fusion to the outer membrane anchoring domain of intimin (VHH, as the VHH of m3 with H107Y (CDR3); Evolved from TD4 by DIvERGE mutagenesis and MACS selection; also called Nb H107Y; not shown: intimin outer membrane anchoring domain, N-terminal, kept) VHH: QVQLVDAGGGSVQAGGSLTLSCVASGAAYSTNLLGWFRQAPGKEREGVASIYRGNSATNYADSVKGRFTISQDKTKYTIYLQMNSLKPEDSAMYYCAHGTAPYWYTPIPTLSEDKYFYWGQGTQVTVSS | 0.57 nM | – | – | 33.9 nM | –
8 | Nb TD4, secreted His6-tagged VHH-HlyA fusion (monovalent, purified) (VHH, VHH TD4, as the VHH of m3; No cleavage of the HlyA part or the His tag is described; the fusion was detected by anti-E-tag in ELISA; also called parental TD4; non-evolved TD4; source: E. coli HB2151 with pVDL9.3 (HlyBD) and a pEHLYA derivative, secreted, purified from culture medium (Talon resin)) VHH: QVQLVDAGGGSVQAGGSLTLSCVASGAAYSTNLLGWFRQAPGKEREGVASIYRGNSATNYADSVKGRFTISQDKTKYTIYLQMNSLKPEDSAMYYCAHGTAPYWHTPIPTLSEDKYFYWGQGTQVTVSS | – | – | 5.55 nM | – | –
9 | Nb TD4^T108R displayed on E. coli as a fusion to the outer membrane anchoring domain of intimin (VHH, as the VHH of m3 with T108R (CDR3); Evolved from TD4 by DIvERGE mutagenesis and MACS selection; also called Nb T108R; not shown: intimin outer membrane anchoring domain, N-terminal, kept) VHH: QVQLVDAGGGSVQAGGSLTLSCVASGAAYSTNLLGWFRQAPGKEREGVASIYRGNSATNYADSVKGRFTISQDKTKYTIYLQMNSLKPEDSAMYYCAHGTAPYWHRPIPTLSEDKYFYWGQGTQVTVSS | 0.36 nM | – | – | 27.6 nM | –

Source: PMC8497518, “ssDNA recombineering boosts in vivo evolution of nanobodies displayed on bacterial surfaces” (Communications Biology, 2021)
